B1: TPR t1 (parent)
chain: GACCAAUCUGCCCUCAGAGCUCGAGAACAUCUUCGGAUGCAGAGGAGGCAGGCUUCGGUGGCGCGAUAGCGCCAACGUCCUCAACCUCCAAUGCAUCCCACCACAUGAUGAUGCCUGAAGAGCCUUGGUUUUUUG

This data set covers variants of B1. Description: polymerase ribozyme fitness, log enrichment relative to wild type (log ratio); higher = more active; in vitro selection for triplet polymerase activity. The method in brief: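 The heterodimeric triplet polymerase ribozyme's subunits were each mutagenized into PCR-built libraries and transcribed. Every library was selected once, in triplicate, by annealing with a biotinylated primer, the partner subunit and triplets, incubating frozen at −7 °C, gel-excising extended constructs, capturing on streptavidin beads and running RT-PCR. Input and output libraries were Illumina-sequenced, with genotypes kept only at ≥10 input reads and ≥1 read per output. Fitness, from inverse-variance-weighted replicate averages, is the base-2 logarithm of genotype enrichment over wild-type enrichment.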
In the case of GACCAAUCUGCCCUCAGAGCUCGAGAACAUCUUCGCAUGCAGAGGAGGCAGGCUUCGGAGGCGCGAUACCGCCAACGUCCUCAACCUACAAUGCAUCCCAACACAUGAUGAUGCCUGAAGAGCCUUGGUUUUUUG [G36C U59A G69C C88A C101A], the “polymerase ribozyme fitness (log ratio)” value is -2.89.

In the case of GACCAAUCUGCCCUCAGAGCUCGAGAACAUCUUCGUAUGCAGAGGUGGCAGGCUUCGGUGGCGCGAUAGCGGCAACGUCCUAAACCCCCAAUGCAUCCCACCACAUGAUGAUGCCUGAAGAGCCUUGGUGUUUUG [G36U A46U C72G C82A U87C U130G], the “polymerase ribozyme fitness (log ratio)” value was -3.54.

Take GACCAAUCUGCCCUCAGAGCUCGAGAACAUCUUCGCAUGCAGAGGAGACAGGCUUCGGUCCCGCGAUAGCGCCAACGUCCUCAACCUCCAAUGCAUCCCACCACAUGAUGAUGCCUGAAGAGCCUUGGUUUUUUG [G36C G48A G60C G61C]: the “polymerase ribozyme fitness (log ratio)” value was -3.64.

For the variant GACCAAUCUGCCCUCAGAGCUCGAGAACAUCUUCGAAUGCAGAGGAGGCAGGCUUCGGAGGCGCGAUAGCGCCAACGUCCUCAACCUCGAAUGCAUCCCACCACAUGAUGAUGCCUGAAGAGCCUUGGUUUUUUG [G36A U59A C89G], the “polymerase ribozyme fitness (log ratio)” value is -3.6.

As for GACCAAUCUGCCCUCAGAGCUCGAGAACAUCUUCGCAUGUAGAGGAGUCAGGCUUCGGUGGCGCGAUAGCGCCAACGUCCUCAACCUCCAAUGCAUCCCACCACAUGAUGAUGCCUGAAGAGCCAUGGUUUUUUG [G36C C40U G48U U125A], the “polymerase ribozyme fitness (log ratio)” value was -3.35.

Take GACCAAUCUGCCCUCAGAGCUCGAGAACAUCUUCGAAUGCAGAGGAGGCAGGCUUCGGUGGCGCGAUAGCGCCAACGUCCUCAACCUCCAAAGCAUCCCACCACAUGAUGAUGCCUGAAGAGCCUUGGUUUUUUG [G36A U92A]: the “polymerase ribozyme fitness (log ratio)” value is -3.67.

As to GACCAAUCUGCCCUCAGAGCUCGAGAACAUCUUCGUAUGCAGAGGUGGCAGUCUUCGGUGGCGCGAUAGCGCCAACGUCCUCAACCUCCAAUGCAUCCCACCACAUGAUGAUGCCUGAAAAGCCUUGGUUUUUUG [G36U A46U G52U G120A], the “polymerase ribozyme fitness (log ratio)” value is -2.3.

In the case of GACCAAUCUGCCCUCAGAGCUCGAGAACAUCUUCGUAUGCAGAGGAGGCAGGCUUCGGUGGCGCGAUAGCGCCAACGUCCUCCACCUCCAAUGCAUCCCACCAUAGGAUGAUGCCUGAAGAGCCUUGGUUUUUUG [G36U A83C C104U U106G], the “polymerase ribozyme fitness (log ratio)” value is -3.91.

Regarding GACCAAUCUGCCCUCAGAGCUCGAGAACAUCUUCGCAUGCAGAGCAGGCAGGCUUCGGUGGCGCGAUAGCGCCAACGUCCUCAACCUCCAAUGCAUCUCACCACAUGAUGAUGCCUGAAGAGCCUUGGUUUUUUG [G36C G45C C98U], the “polymerase ribozyme fitness (log ratio)” value was -3.33.

As to GACCAAUCUGCCCUCAGAGCUCGAGAACAUCUUCGCAUGCAGAGGAGGCAGCCUUCGGUGGCGCGAUAGAGCCAACGUCCUCAACCUCCAAUGCAUCCCACCACAAGAUGAUGCCUGAAGAGCCUUGGUUUUUUG [G36C G52C C70A U106A], the “polymerase ribozyme fitness (log ratio)” value was -2.71.

Regarding GACCAAUCUGCCCUCAGAGCUCGAGAACAUCUUCGCAUGCAGAGGAGGGAGGCUUCGGUGGCGCGAUAGCGCCAACGUCCUCAACCUCCAAUGCAUCCCACAACAUGAUGAUGCCUGAAGAGCCAUGGUUUUUUG [G36C C49G C102A U125A], the “polymerase ribozyme fitness (log ratio)” value is -4.36.

Take GACCAAUCUGCCCUCAGAGCUCGAGAACAUCUUCGCAUGCAGAGGAGGCAGGCUUCGGUAGCGCGAUAGCGCCAACGUCCUCAACCUCCAAUGCAUCUCACCACAUGAUGAUGCCUGAAGAGCCUUGGUUUUUUG [G36C G60A C98U]: the “polymerase ribozyme fitness (log ratio)” value is -2.39.

GACCAAUCUGCCCUCAGAGCUCGAGAACAUCUUCGCAUGCAGAGGAGGCAGGCUUCGGUUGCGCGAUAGCGCCAACGUCCUCAACCUCCAAUGCAUCCCACCACAUGAUGAUGCCUGUAGAGCCUUGGUUUUUUG [G36C G60U A118U]: the “polymerase ribozyme fitness (log ratio)” value is -0.591.

For the variant GACCAAUCUGCCCUCAGAGCUCGAGAACAUCUUCGCAUGCAGAGGAGGCAGGCUACGGUGGCGCGAUAGCGCCAACGUCCUCAACCUCCAAUGCAUCCCACCACAUGAUGAUGCCUGAAGAGCCUUGGUUAUUUG [G36C U55A U131A], the “polymerase ribozyme fitness (log ratio)” value was -0.527.

With GACCAAUCUGCCCUCAGAGCUCGAGAACAUCUUCGCAUGCAGAGGAGGCAGGCUUCGGUGGCGCGAUAGCGCCAACGUCCUCAACCUCCAAUGCAUCCCACCACAUGAUGAUGCCUGAAGAGCCUUGGUUUUUUG [G36C], the “polymerase ribozyme fitness (log ratio)” value was -1.27.

With GACCAAUCUGCCCUCAGAGCUCGAGAACAUCUUCGUAUGCAGAGGAGGCAGGCUUCGGUGGCGCGAUAGCGCCAACGUCCUCAACCUCCAAUGCAUCCCACCACAUGAUGAUGCCUGAAGAGCCUUGGUUUUUUG [G36U], the “polymerase ribozyme fitness (log ratio)” value was -1.06.

For the variant GACCAAUCUGCCCUCAGAGCUCGAGAACAUCUUCGCAUGCAGAGGAGGCAGGCUUCGGUGGCGCGAUAGGGCCAACGUCCUCAACCUCCAAUGCAUCCCACCACAUGAUGAUGCCUGAAGAGCCUUGGUUUUUUG [G36C C70G], the “polymerase ribozyme fitness (log ratio)” value is -5.05.

Take GACCAAUCUGCCCUCAGAGCUCGAGAACAUCUUCGCAUGCAGAGGAGGCAGGCUUCCGUGACGCGAUAGCGCCAACGUCCUCAACCUCCAAUGCAUCCCACCACACGAUGAUUCCUGAAGAGCCUUGGUUUUUUG [G36C G57C G61A U106C G113U]: the “polymerase ribozyme fitness (log ratio)” value was -3.7.

Turning to GACCAAUCUGCCCUCAGAGCUCGAGAACAUCUUCGCAUGCAGAGGAGGCAGGCUUUGGUGGCGCGAUAGCGCCAACGUCCUCAACCUCCAAUGCAUCCCACCACAUGAUGAUGCCUGAAGAGCCUUGGUUUUUUG [G36C C56U], the “polymerase ribozyme fitness (log ratio)” value is -0.42.

As for GACCAAUCUGCCCUCAGAGCUCGAGAACAUCUUCGCAUGCAGAGGAGGCAGGCUUCGGUGGCGCGAUAGCGCCAACGGCCUCAACCUCCAAUGCAUCCCACCACAUGAUGAUGCCUGAAGAGCCUUGGUUUUUUG [G36C U78G], the “polymerase ribozyme fitness (log ratio)” value was -1.1.

As to GACCAAUCUGCCCUCAGAGCUCGAGAACAUCUUCGCAUGCAGAGGAGGCAGGCUUCGGUGGCGCGAUAGCGCCAACGUCCUCAACCUCCAAUGCAUCCCUCCACAUGAUGGUGCCUGAAGAGCCUUGGUUUUUUG [G36C A100U A111G], the “polymerase ribozyme fitness (log ratio)” value was -1.04.

The values are drawn from the RNAGym collection of RNA variant scans (doi:10.1073/pnas.2313332121).
